The DeepSol protein solubility set

Test: soluble on expression in E. coli; label from the status in PepcDB or PDB records

| Sequence | soluble on expression in E. coli |
| --- | --- |
| GSHMFKCMEALGMESGEIHSDQITASSQYSTNWSAERSRLNYPENGWTPGEDSYREWIQVDLGLLRFVTAVGTQGAISKETKKKYYVKTYKIDVSSNGEDWITIKEGNKPVLFQGNTNPTDVVVAVFPKPLITRFVRIKPATWETGISMRFEVYGCKITDYPCSGMLGMVSGLISDSQITSSNQGDRNWMPENIRLVTSRSGWALPPAPHSYINEWLQIDLGEEKIVRGIIIQGGKHRENKVFMRKFKIGYSNNGSDWKMIMDDSKRKAKSFEGNNNYDTPELRTFPALSTRFIRIYPERATHGGLGLRMELLGCEVE | soluble |
| GSHMKEPKLSPKQERFIEEYFINDMNATKAAIAAGYSKNSASAIGAENLQKPAIRARIDARLK | soluble |
| GSHMKVLLLGFEFLPVKVGGLAEALTAISEALASLGHEVLVFTPSHGRFQGEEIGKIRVFGEEVQVKVSYEERGNLRIYRIGGGLLDSEDVYGPGWDGLIRKAVTFGRASVLLLNDLLREEPLPDVVHFHDWHTVFAGALIKKYFKIPAVFTIHRLNKSKLPAFYFHEAGLSELAPYPDIDPEHTGGYIADIVTTVSRGYLIDEWGFFRNFEGKITYVFNGIDCSFWNESYLTGSRDERKKSLLSKFGMDEGVTFMFIGRFDRGQKGVDVLLKAIEILSSKKEFQEMRFIIIGKGDPELEGWARSLEEKHGNVKVITEMLSREFVRELYGSVDFVIIPSYFEPFGLVALEAMCLGAIPIASAVGGLRDIITNETGILVKAGDPGELANAILKALELSRSDLSKFRENCKKRAMSFSWEKSAERYVKAYTGSIDRAFDFIL | soluble |
| GSHMLEMRIGHGFDVHAFGGEGPIIIGGVRIPYEKGLLAHSDGDVALHALTDALLGAAALGDIGKLFPDTDPAFKGADSRELLREAWRRIQAKGYTLGNVDVTIIAQAPKMLPHIPQMRVFIAEDLGCHMDDVNVKATTTEKLGFTGRGEGIACEAVALLIKATK | soluble |
| GSHMLITPRNIFRHELIGLSVRIARSVHRDIQGISGRVVDETRNTLRIEMDDGREITVPKGIAVFHFRTPQGELVEIDGRALVARPEERIKKKFRKP | soluble |
| GSHMPNYDTSIDIEDIKKILPHRYPFLLVDKVIYMQPNKTIIGLKQVSTNEPFFNGHFPQKQIMPGVLQIEALAQLAGILCLKSDDSQKNNLFLFAGVDGVRWKKPVLPGDTLTMQANLISFKSSLGIAKLSGVGYVNGKVVINISEMTFALSK | soluble |
| GSHMVLTKKKLQDLVREVDPNEQLDEDVEEMLLQIADDFIESVVTAACQLARHRKSSTLEVKDVQLHLERQWNMWI | soluble |
| GSHSLRYFVTAVSRPGHGKPRYMEVGYVDDTEFVRFDSDAENPRYEPRTPWMEQVEPEYWEGQTQIAKGNEQSSRVDLRTALRYYNQSAGGSHTIQRMRGCEVGSDGRLLRGYQQVAYDGRDYIALNEDLKTWTAADMAALITKHKWEQAGAAERDRAYLEGACVEWLRRYLELGNATLLRTDSPKAHVTHHSRPKDKVTLRCWALGFYPADITLTWQLNGEELTQDMELVETRPAGDGTFQKWASVVVPLGKEQNYTCHVYHEGLPEPLTLRW | soluble |
| GSKAEKTLGDFAAEYAKSNRSTCKGCMEKIEKGQVRLSKKMVDPEKPQLGMIDRWYHPGCFVKNREELGFRPEYSASQLKGFSLLATEDKEALKKQLPGVKSEGKRKGDEVDGVDEVAKKK | soluble |
| GSKEKLKEIKLLVCNIDGCLTNGHIYVSGDQKEIISYDVKDAIGISLLKKSGIEVRLISERACSKQTLSALKLDCKTEVSVSDKLATVDEWRKEMGLCWKEVAYLGNEVSDEECLKRVGLSAVPADACSGAQKAVGYICKCSGGRGAIREFAEHIFLLIEKVNNSCQK | soluble |
| GSMAGGVDGPIGIPFPDHSSDILSGLNEQRTQGLLCDVVILVEGREFPTHRSVLAACSQYFKKLFTSGAVVDQQNVYEIDFVSAEALTALMDFAYTATLTVSTANVGDILSAARLLEIPAVSHVCADLLDRQI | soluble |
| GSMNDRDFMRYSRQILLDDIALDGQQKLLDSQVLIIGLGGLGTPAALYLAGAGVGTLVLADDDDVHLSNLQRQILFTTEDIDRPKSQVSQQRLTQLNPDIQLTALQQRLTGEALKDAVARADVVLDCTDNMATRQEINAACVALNTPLITASAVGFGGQLMVLTPPWEQGCYRCLWPDNQEPERNCRTAGVVGPVVGVMGTLQALEAIKLLSGIETPAGELRLFDGKSSQWRSLALRRASGCPVCGGSNADPV | soluble |
| GSMTEETHPDDDSYIVRVKAVVMTRDDSSGGWFPQEGGGISRVGVCKVMHPEGNGRSGFLIHGERQKDKLVVLECYVRKDLVYTKANPTFHHWKVDNRKFGLTFQSPADARAFDRGVRKAIEDLIE | soluble |
| GSPEFMDDIFTQCREGNAVAVRLWLDNTENDLNQGDDHGFSPLHWACREGRSAVVEMLIMRGARINVMNRGDDTPLHLAASHGHRDIVQKLLQYKADINAVNEHGNVPLHYACFWGQDQVAEDLVANGALVSICNKYGEMPVDKAKAPLRELLRERAEKMGQNLNRIPYKDTFWKGTTR | soluble |
| GSQQGKFDTKGIESTDEAKMSFLVTLNNVEVCSENISTLKKTLESDCTKLFSQGIGGEQAQAKFDSCLSDLAAVSNKFRDLLQEGLTELNSTAIKPQVQPWINSFFSVSHNIEEEEFNDYEANDPWVQQFILNLEQQMAEFKASLSPVIYDSLTGLMTSLVAVELEKVVLKSTFNRLGGLQFDKELRSLIAYLTTVTTWTIRDKFARLSQMATILNLERVTEILDYWGPNSGPLTWRLTPAEVRQVLALRIDFRSEDIKRLRL | soluble |
| GSRVALVTGANRGIGLAIARELCRQFSGDVVLTARDVARGQAAVQQLQAEGLSPRFHQLDIDDLQSIRALRDFLRKEYGGLNVLVNNAAVAFKSDDPMPFDIKAEMTLKTNFFATRNMCNELLPIMKPHGRVVNISSLQCLRAFENCSEDLQERFHSETLTEGDLVDLMKKFVEDTKNEVHEREGWPNSPYGVSKLGVTVLSRILARRLDEKRKADRILVNACCPGPVKTDMDGKDSIRTVEEGAETPVYLALLPPDATEPQGQLVHDKVVQNW | soluble |
| GSSGSSGVSSQETQGGPLAPMTGTIEKVFVKAGDKVKAGDSLMVMIAMKMEHTIKSPKDGTVKKVFYREGAQANRHTPLVEFEEEESDKRESESGPSSG | soluble |
| GTKQKMRTVFSQAQLCALKDRFQKQKYLSLQQMQELSSILNLSYKQVKTWFQNQRMKCKRWQ | soluble |
| GTQPTFGFTVNWKFSESTTVFTGQCFIDRNGKEVLKTMWLLRSSVNDIGDDWKATRVGINIFTRLRTQKEGGSGGSARKCSLTGKWTNDLGSNMTIGAVNSRGEFTGTYITAVTATSNEIKESPLHGTQNTINKSGGSTTVFTGQCFIDRNGKEVLKTMWLLRSSVNDIGDDWKATRVGINIFTRLRTQKEGGSGGSARKCSLTGKWTNDLGSNMTIGAVNSRGEFTGTYITAVTATSNEIKESPLHGTQNTINKRTQPTFGFTVNWKFSE | soluble |
| HDFASWVSGDSMEPKYHNGSVTLIRETGFDYDGAVYAVVCNSQTYIKRVYLEAEGLRLKYKDIFISYDEDPRVVRIIIGNFIPL | not soluble |
| HDTRKIIAKQLGPHTYLVSGRMEIDDVNERFGLSLPESDDYLTVAGFILNSHQNIPQANEVVEIAPYTFTILRSSSTKIELVKMSIDD | not soluble |
| HEHPTSAGGDGGAGTGAVGTHDGSAAAAAAAAALPSISGARGHAGPEGGHDNDMGGMDASGGGGGGGYGRLPGLAAQSSMASVDGDEASLPPIANLSLGKANMTGSTVGGAAHASTRRSTLNTYYEPGAGGGGGTGGAGGGGGGAGPGPAGYGKVAKAAAVGGAGSVAGGGGVVGGAGVGGGGAVGSGTVGRRQSVGVVVGKYGSVNKQASQGHGGGGPGVAGAAGMAVTGGHAGGGVGGGGGGAVGVGGVGVNKYKANVGKTNSKYISPYSLRQLAG | not soluble |
| HHHHHHDITFRNIRFRYKPDSPVILDNINLSIKQGEVIGIVGRSGSGKSTLTKLIQRFYIPENGQVLIDGHDLALADPNWLRRQVGVVLQDNVLLNRSIIDNISLANPGMSVEKVIYAAKLAGAHDFISELREGYNTIVGEQGAGLSGGQRQRIAIARALVNNPKILIFDEATSALDYESEHVIMRNMHKICKGRTVIIIAHRLSTVKNADRIIVMEKGKIVEQGKHKELLSEPESLYSYLYQLQSD | soluble |
